# Data reported in PMC2661964, “Mammalian Kinesin-3 Motors Are Dimeric In Vivo and Move by Processive Motility upon Release of Autoinhibition” (PLoS Biology, 2009).
# Target: the molecule itself
# Experiment: cross-linking; lysates of transfected COS cells in borate buffer (50 mM NaBorate, 100 mM potassium acetate, 2 mM MgCl2, 1 mM EGTA, 1% Triton X-100, pH 8.57), 20 mM DMP for 30 min or untreated; SDS-PAGE, immunoblot
row,Protein,stoichiometry N
1,"KIF1A(1–726)-mCit (domain or fragment, rat, UniProt F1M4A4 1-726, looked up, source: COS cells, transfected, in lysate; not shown: mCit (monomeric citrine), C-terminal, kept) MAGASVKVAVRVRPFNSREMSRDSKCIIQMSGSTTTIVNPKQPKETPKSFSFDYSYWSHTSPEDINYASQKQVYRDIGEEMLQHAFEGYNVCIFAYGQTGAGKSYTMMGKQEKDQQGIIPQLCEDLFSRINDTTNDNMSYSVEVSYMEIYCERVRDLLNPKNKGNLRVREHPLLGPYVEDLSKLAVTSYNDIQDLMDSGNKARTVAATNMNETSSRSHAVFNIIFTQKRHDAETNITTEKVSKISLVDLAGSERADSTGAKGTRLKEGANINKSLTTLGKVISALAEMDSGPNKNKKKKKTDFIPYRDSVLTWLLRENLGGNSRTAMVAALSPADINYDETLSTLRYADRAKQIRCNAIINEDPNNKLIRELKDEVTRLRDLLYAQGLGDITDTNTVPGGPKLTNALVGMSPSSSLSALSSRAASVSSLHERILFAPGSEEAIERLKETEKIIAELNETWEEKLRRTEAIRMEREALLAEMGVAMREDGGTLGVFSPKKTPHLVNLNEDPLMSECLLYYIKDGVTRVGREDAERRQDIVLSGHFIKEEHCIFRSDSRGGGEAVVTLEPCEGADTYVNGKKVTEPSILRSGNRIIMGKSHVFRFNHPEQARQERERTPCAETPAEPVDWAFAQRELLEKQGIDMKQEMEQRLQELEDQYRREREEATYLLEQQRLDYESKLEALQKQMDSRYYPEVNEEEEEPEDEVQWTERECELALWAFRKWKWY",2
2,"KIF1A(1–393)-mCit (domain or fragment, rat, UniProt F1M4A4 1-393, looked up, full NC and several residues of the hinge; Plasmid was a gift from Gary Banker; source: COS cells, transfected, in lysate; not shown: mCit (monomeric citrine), C-terminal, kept) MAGASVKVAVRVRPFNSREMSRDSKCIIQMSGSTTTIVNPKQPKETPKSFSFDYSYWSHTSPEDINYASQKQVYRDIGEEMLQHAFEGYNVCIFAYGQTGAGKSYTMMGKQEKDQQGIIPQLCEDLFSRINDTTNDNMSYSVEVSYMEIYCERVRDLLNPKNKGNLRVREHPLLGPYVEDLSKLAVTSYNDIQDLMDSGNKARTVAATNMNETSSRSHAVFNIIFTQKRHDAETNITTEKVSKISLVDLAGSERADSTGAKGTRLKEGANINKSLTTLGKVISALAEMDSGPNKNKKKKKTDFIPYRDSVLTWLLRENLGGNSRTAMVAALSPADINYDETLSTLRYADRAKQIRCNAIINEDPNNKLIRELKDEVTRLRDLLYAQGLGDITD",2
3,"Myc-KIF1A (natural protein, rat, UniProt F1M4A4 1-1707, looked up, KIF1A (Kinesin-3 motor), rat, full length; Cloned into pRK5-Myc; also called Myc-tagged KIF1A; FL KIF1A; source: COS cells, transfected, in lysate) MAGASVKVAVRVRPFNSREMSRDSKCIIQMSGSTTTIVNPKQPKETPKSFSFDYSYWSHTSPEDINYASQKQVYRDIGEEMLQHAFEGYNVCIFAYGQTGAGKSYTMMGKQEKDQQGIIPQLCEDLFSRINDTTNDNMSYSVEVSYMEIYCERVRDLLNPKNKGNLRVREHPLLGPYVEDLSKLAVTSYNDIQDLMDSGNKARTVAATNMNETSSRSHAVFNIIFTQKRHDAETNITTEKVSKISLVDLAGSERADSTGAKGTRLKEGANINKSLTTLGKVISALAEMDSGPNKNKKKKKTDFIPYRDSVLTWLLRENLGGNSRTAMVAALSPADINYDETLSTLRYADRAKQIRCNAIINEDPNNKLIRELKDEVTRLRDLLYAQGLGDITDTNTVPGGPKLTNALVGMSPSSSLSALSSRAASVSSLHERILFAPGSEEAIERLKETEKIIAELNETWEEKLRRTEAIRMEREALLAEMGVAMREDGGTLGVFSPKKTPHLVNLNEDPLMSECLLYYIKDGVTRVGREDAERRQDIVLSGHFIKEEHCIFRSDSRGGGEAVVTLEPCEGADTYVNGKKVTEPSILRSGNRIIMGKSHVFRFNHPEQARQERERTPCAETPAEPVDWAFAQRELLEKQGIDMKQEMEQRLQELEDQYRREREEATYLLEQQRLDYESKLEALQKQMDSRYYPEVNEEEEEPEDEVQWTERECELALWAFRKWKWYQFTSLRDLLWGNAIFLKEANAISVELKKKVQFQFVLLTDTLYSPLPPDLLPPEAAKDRETRPFPRTIVAVEVQDQKNGATHYWTLEKLRQRLDLMREMYDRAAEVPSSVVEDCDNVVTGGDPFYDRFPWFRLVGRAFVYLSNLLYPVPLVHRVAIVSEKGEVKGFLRVAVQAISADEEAPDYGSGVRQSGTAKISFDDQHFEKFQSESCPVVGMSRSGTSQEELRIVEGQGQGADAGPSADEVNNNTCSAVPPEGLLDSPEKAALDGPLDTALDHLRLGSTFTFRVTVLQASSISAEYADIFCQFNFIHRHDEAFSTEPLKNTGRGPPLGFYHVQNIAVEVTKSFIEYIKSQPIVFEVFGHYQQHPFPPLCKDVLSPLRPSRRHFPRVMPLSKPVPATKLSTMTRPSPGPCHCKYDLLVYFEICELEANGDYIPAVVDHRGGMPCMGTFLLHQGIQRRITVTLLHETGSHIRWKEVRELVVGRIRNTPETDEALIDPNILSLNILSSGYVHPAQDDRQFLDSDIPRTFYQFEAAWDSSMHNSLLLNRVTPYREKIYMTLSAYIEMENCTQPAVITKDFCMVFYSRDAKLPASRSIRNLFGSGSLRATEGNRVTGVYELSLCHVADAGSPGMQRRRRRVLDTSVAYVRGEENLAGWRPRSDSLILDHQWELEKLSLLQEVEKTRHYLLLREKLETTQRPVPEVLSPASSEDSESRSSSGASSPLSAEGQPSPLEVPNERQRELAVKCLRLLMHTFNREYTHSHVCISASESKLSEMSVTLMRDPSMSPLGAATLTPSSTCPSLIEGRYGATDVRTPQPCSRPASPEPELLPELDSKKTPSPVRATETEKEPQRLLVPDIQEIRVSPIVSKKGYLHFLEPHTAGWAKRFVVVRRPYAYMYNSDKDTVERFVLNLSTAQVEYSEDQQAMLKTPNTFAVCTEHRGILLQANSDKDMHDWLYAFNPLLAGTIRSKLSRRRSAQMRV",~2
4,"mCit-KIF1A (natural protein, rat, UniProt F1M4A4 1-1707, looked up, KIF1A (Kinesin-3 motor), rat, full length; also called mCit-tagged KIF1A; FL KIF1A; source: COS cells, transfected; in lysate and in live cells; not shown: mCit (monomeric citrine), N-terminal, kept) MAGASVKVAVRVRPFNSREMSRDSKCIIQMSGSTTTIVNPKQPKETPKSFSFDYSYWSHTSPEDINYASQKQVYRDIGEEMLQHAFEGYNVCIFAYGQTGAGKSYTMMGKQEKDQQGIIPQLCEDLFSRINDTTNDNMSYSVEVSYMEIYCERVRDLLNPKNKGNLRVREHPLLGPYVEDLSKLAVTSYNDIQDLMDSGNKARTVAATNMNETSSRSHAVFNIIFTQKRHDAETNITTEKVSKISLVDLAGSERADSTGAKGTRLKEGANINKSLTTLGKVISALAEMDSGPNKNKKKKKTDFIPYRDSVLTWLLRENLGGNSRTAMVAALSPADINYDETLSTLRYADRAKQIRCNAIINEDPNNKLIRELKDEVTRLRDLLYAQGLGDITDTNTVPGGPKLTNALVGMSPSSSLSALSSRAASVSSLHERILFAPGSEEAIERLKETEKIIAELNETWEEKLRRTEAIRMEREALLAEMGVAMREDGGTLGVFSPKKTPHLVNLNEDPLMSECLLYYIKDGVTRVGREDAERRQDIVLSGHFIKEEHCIFRSDSRGGGEAVVTLEPCEGADTYVNGKKVTEPSILRSGNRIIMGKSHVFRFNHPEQARQERERTPCAETPAEPVDWAFAQRELLEKQGIDMKQEMEQRLQELEDQYRREREEATYLLEQQRLDYESKLEALQKQMDSRYYPEVNEEEEEPEDEVQWTERECELALWAFRKWKWYQFTSLRDLLWGNAIFLKEANAISVELKKKVQFQFVLLTDTLYSPLPPDLLPPEAAKDRETRPFPRTIVAVEVQDQKNGATHYWTLEKLRQRLDLMREMYDRAAEVPSSVVEDCDNVVTGGDPFYDRFPWFRLVGRAFVYLSNLLYPVPLVHRVAIVSEKGEVKGFLRVAVQAISADEEAPDYGSGVRQSGTAKISFDDQHFEKFQSESCPVVGMSRSGTSQEELRIVEGQGQGADAGPSADEVNNNTCSAVPPEGLLDSPEKAALDGPLDTALDHLRLGSTFTFRVTVLQASSISAEYADIFCQFNFIHRHDEAFSTEPLKNTGRGPPLGFYHVQNIAVEVTKSFIEYIKSQPIVFEVFGHYQQHPFPPLCKDVLSPLRPSRRHFPRVMPLSKPVPATKLSTMTRPSPGPCHCKYDLLVYFEICELEANGDYIPAVVDHRGGMPCMGTFLLHQGIQRRITVTLLHETGSHIRWKEVRELVVGRIRNTPETDEALIDPNILSLNILSSGYVHPAQDDRQFLDSDIPRTFYQFEAAWDSSMHNSLLLNRVTPYREKIYMTLSAYIEMENCTQPAVITKDFCMVFYSRDAKLPASRSIRNLFGSGSLRATEGNRVTGVYELSLCHVADAGSPGMQRRRRRVLDTSVAYVRGEENLAGWRPRSDSLILDHQWELEKLSLLQEVEKTRHYLLLREKLETTQRPVPEVLSPASSEDSESRSSSGASSPLSAEGQPSPLEVPNERQRELAVKCLRLLMHTFNREYTHSHVCISASESKLSEMSVTLMRDPSMSPLGAATLTPSSTCPSLIEGRYGATDVRTPQPCSRPASPEPELLPELDSKKTPSPVRATETEKEPQRLLVPDIQEIRVSPIVSKKGYLHFLEPHTAGWAKRFVVVRRPYAYMYNSDKDTVERFVLNLSTAQVEYSEDQQAMLKTPNTFAVCTEHRGILLQANSDKDMHDWLYAFNPLLAGTIRSKLSRRRSAQMRV",~2
